Earlier results, collected in patent EP0632082B1, “Preparation of activated carbamates of poly(alkylene glycol) and their use” ("HEYLECINA", Société Anonyme, priority 1993, dated 1995).

Conditions: modification with SC-mPEG

For “papaya proteinase III: papaya proteinase III modified with SC-mPEG”, the “increase of specific activity” value is given as 250%.
